This experiment has as its target monovalent murine IL-2 fusion toxin (DT390-mIL-2-6xHis). Description: flow cytometry on CTLL-2 cells. (Flow cytometry measures light scatter and fluorescence of single cells or particles in a stream.)

The source of these data is patent US20160030526A1 (GENERAL HOSPITAL, published 2016).

B1: murine IL-2 receptor on murine CD25+ CTLL-2 cells (receptor)
chain 1: ELCLYDPPEVPNATFKALSYKNGTILNCECKRGFRRLKELVYMRCLGNSWSSNCQCTSNSHDKSRKQVTAQLEHQKEQQTTTDMQKPTQSMHQENLTGHCREPPPWKHEDSKRIYHFVEGQSVHYECIPGYKALQRGPAISICKMKCGKTGWTQPQLTCVDEREHHRFLASEESQGSRNSSPESETSCPITTTDFPQPTETTAMTETFVLTMEYKVAVASCLFLLISILLLSGLTWQHRWRKSRRTI
chain 2: AVKNCSHLECFYNSRANVSCMWSHEEALNVTTCHVHAKSNLRHWNKTCELTLVRQASWACNLILGSFPESQSLTSVDLLDINVVCWEEKGWRRVKTCDFHPFDNLRLVAPHSLQVLHIDTQRCNISWKVSQVSHYIEPYLEFEARRRLLGHSWEDASVLSLKQRQQWLFLEMLIPSTSYEVQVRVKAQRNNTGTWSPWSQPLTFRTRPADPMKEILPMSWLRYLLLVLGCFSGFFSCVYILVKCRYLGPWLKTVLKCHIPDPSEFFSQLSSQHGGDLQKWLSSPVPLSFFSPSGPAPEISPLEVLDGDSKAVQLLLLQKDSAPLPSPSGHSQASCFTNQGYFFFHLPNALEIESCQVYFTYDPCVEEEVEEDGSRLPEGSPHPPLLPLAGEQDDYCAFPPRDDLLLFSPSLSTPNTAYGGSRAPEERSPLSLHEGLPSLASRDLMGLQRPLERMPEGDGEGLSANSSGEQASVPEGNLHGQDQDRGQGPILTLNTDAYLSLQELQAQDSVHLI
chain 3: WSSKVLMSSANEDIKADLILTSTAPEHLSAPTLPLPEVQCFVFNIEYMNCTWNSSSEPQATNLTLHYRYKVSDNNTFQECSHYLFSKEITSGCQIQKEDIQLYQTFVVQLQDPQKPQRRAVQKLNLQNLVIPRAPENLTLSNLSESQLELRWKSRHIKERCLQYLVQYRSNRDRSWTELIVNHEPRFSLPSVDELKRYTFRVRSRYNPICGSSQQWSKWSQPVHWGSHTVEENPSLFALEAVLIPVGTMGLIITLIFVYCWLERMPPIPPIKNLEDLVTEYQGNFSAWSGVSKGLTESLQPDYSERFCHVSEIPPKGGALGEGPGGSPCSLHSPYWPPPCYSLKPEA
notes: whole, on cells; also called murine CD25+ IL-2 receptor
Consider B1, for which the binding result is “binds”.
